According to patent US20140308269A1 (published 2014):
Numbering of substitutions follows the chain as printed.

Assays:
[1] = biological target: T1, soluble ICAM-1 (Bender MedSystems) (UniProt P05362 28-480, limits assumed); test: ELISA on plate-coated soluble ICAM-1, His-tagged scFv detected with anti-His-HRP
T1 construct: Bought soluble protein coated on the ELISA plate
Method: (§1) To evaluate the binding affinity of histidine-tagged human single chain (hsc) proteins soluble ICAM was used in an ELISA assay. A 96-well EIA plate (Corning, Inc.) was coated with 100 μl/well soluble ICAM-1 (Bender MedSystems) at 1 μg/ml in 0.1 M. NaHCO₃. After washing with TBST (50 mM Tris, pH8.0, 150 mM NaCl, 0.05% Tween-20), the plate was blocked with 3% non-fat milk in TBST at 37° C. for 1 hour. After washing with TBST, the plate was incubated with scFv samples (100 μl/well) diluted in 1% non-fat milk/TBST solution at room temperature for 1 hour. After washing with TBST, the horse radish peroxidase-conjugated anti-His (C-term) antibody (Invitrogen) diluted 1:2000 in 1% non-fat milk/TBST was added and the plate was incubated at room temperature for 1 hour. The plate was washed thoroughly with TBST and 100 μl/well 3,3′,5,5′-tetramethylbenzidine substrate solution (Kirkegaard and Perry Laboratories) was added. After 5 min incubation, the color development was stopped by adding […] 0.12 N HCl and the absorbance of the wells at 450 nm was measured by a plate reader (ICN).

[2] = biological target: T2, ICAM-1 on HeLa cells (UniProt P05362 28-532, limits assumed); test: cell-based or functional assay
T2 sequence (P05362 28-532 limits assumed): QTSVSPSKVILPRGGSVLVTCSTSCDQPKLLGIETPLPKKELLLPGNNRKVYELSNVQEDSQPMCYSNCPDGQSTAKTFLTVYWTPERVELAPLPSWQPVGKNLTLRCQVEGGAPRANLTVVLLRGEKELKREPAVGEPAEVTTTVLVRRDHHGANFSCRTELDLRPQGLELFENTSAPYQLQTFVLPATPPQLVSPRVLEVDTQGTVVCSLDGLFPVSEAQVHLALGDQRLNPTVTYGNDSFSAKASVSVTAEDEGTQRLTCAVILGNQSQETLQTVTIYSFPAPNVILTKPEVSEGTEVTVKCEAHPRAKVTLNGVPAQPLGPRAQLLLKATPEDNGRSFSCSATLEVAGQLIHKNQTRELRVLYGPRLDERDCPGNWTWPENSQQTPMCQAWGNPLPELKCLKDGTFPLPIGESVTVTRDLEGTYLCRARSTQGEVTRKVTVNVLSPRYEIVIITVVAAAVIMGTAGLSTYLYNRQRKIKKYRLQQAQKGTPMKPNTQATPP

[3] = biological target: T1, soluble ICAM-1 (Bender MedSystems); test: ELISA on plate-coated soluble ICAM-1; reference Msc1A6
Method: as §1

[4] = biological target: T2, ICAM-1 on HeLa cells; test: cell-based or functional assay; remark: listed apart in the source

T1 sequence (P05362 28-480 limits assumed): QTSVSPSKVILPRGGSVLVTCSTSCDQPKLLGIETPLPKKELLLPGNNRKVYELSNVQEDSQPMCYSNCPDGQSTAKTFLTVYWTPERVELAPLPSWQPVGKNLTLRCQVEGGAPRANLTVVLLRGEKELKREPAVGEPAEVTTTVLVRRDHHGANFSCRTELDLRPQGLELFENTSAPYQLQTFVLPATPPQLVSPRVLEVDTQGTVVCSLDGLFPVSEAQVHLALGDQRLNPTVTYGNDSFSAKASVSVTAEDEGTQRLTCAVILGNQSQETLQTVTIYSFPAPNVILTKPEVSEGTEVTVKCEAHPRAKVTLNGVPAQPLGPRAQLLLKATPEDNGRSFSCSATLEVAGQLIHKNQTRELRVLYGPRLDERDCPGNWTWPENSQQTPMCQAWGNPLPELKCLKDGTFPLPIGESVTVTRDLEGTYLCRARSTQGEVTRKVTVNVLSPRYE

B1: Msc1A6 (parental mouse monoclonal antibody 1A6 in the form of scFv) (scFv, V domains shown)
VH: EVQLQQSGAELVKPGASLKLSCTASGFNIKDTYIHWMKQRPEQGLEWIGRIDPANDNTIYDPKVQGKATMTADTSSNTAYLQLNSLTSEDTAVYYCTTSGYWFAYWGQGTLVTVSS
VL: DIVLTQSPATLSVTPGDSVSLSCRASQSISNNLHWYQQKHSESPRLLIKHASQSISGIPSRFSGSGSGTDFTLSINSVETEDFGMFFCQQSNSWPYTFGGGTKLEIKR
notes: Tested as a single-chain Fv (one polypeptide); also called Mouse 1A6 scFv; mouse IA6 scFv
Kd [1]: 1180 nM | EC 50 (µM): 50% protection of HeLa cells against HRV15 infection at 1 MOI [2]: > 10 µM

B2: HscD (humanized 1A6 scFv HumD) (scFv)
scFv: DIQMTQSPSSLSASVGDRVTITCRASQSISNNLHWYQQKPGKAPKLLIYHASQSISGVPSRFSGSGSGTDFTLTISSLQPEDFATYYCQQSNSWPYTFGQGTKVEIKRGGGGSGGGGSGGGGSGGGGSEVQLVESGGGLVQPGGSLRLSCAASGFNIKDTYIHWVRQAPGKGLEWVARIDPANDNTIYADSVKGRFTISSDDSKNTAYLQMNSLRAEDTAVYYCTTSGYWFAYWGQGTLVTVSS
notes: not shown: carboxy-terminal His tag of vector pBAD/pIII A
Kd [1]: 23.3 nM | fold higher binding affinity than the parental mouse scFv [3]: > 10 fold | EC 50 (µM): 50% protection of HeLa cells against HRV15 infection at 1 MOI [2]: 0.05 µM

B3: HscB (humanized 1A6 scFv HumB) (scFv)
scFv: B2 scFv with T226A
notes: also called Hum19; Hum 19 scFv; not shown: carboxy-terminal His tag of vector pBAD/pIII A
Kd [1]: 26.2 nM | fold higher binding affinity than the parental mouse scFv [3]: > 10 fold | EC50 of protection of HeLa cells from HRV infection, against the parental mouse 1A6 scFv protein [4]: > 60 fold

B4: HscA (humanized 1A6 scFv HumA) (scFv)
scFv: B2 scFv with T226D
notes: also called humanized scFv A; scFV3; not shown: carboxy-terminal His tag of vector pBAD/pIII A
Kd [1]: 150 nM | fold higher binding affinity than the parental mouse scFv [3]: > 10 fold

B5: HscH (humanized 1A6 scFv HumH) (scFv)
scFv: B2 scFv with Y49K, A189D, D190P, S191K, K193Q, S200A
notes: as for B2
Kd [1]: 20.9 nM | fold higher binding affinity than the parental mouse scFv [3]: > 10 fold | EC 50 (µM): 50% protection of HeLa cells against HRV15 infection at 1 MOI [2]: 4.2 µM

B6: HscF (humanized 1A6 scFv HumF) (scFv)
scFv: B2 scFv with S200A
notes: as for B2
Kd [1]: 46 nM | fold higher binding affinity than the parental mouse scFv [3]: > 10 fold | EC 50 (µM): 50% protection of HeLa cells against HRV15 infection at 1 MOI [2]: 0.29 µM

B7: HscI (humanized 1A6 scFv HumI) (scFv)
scFv: B2 scFv with Y49K, V165M, A189D, D190P, S191K, K193Q, I198M, S200A, D202T
notes: as for B2
Kd [1]: 150 nM | fold higher binding affinity than the parental mouse scFv [3]: > 10 fold | EC 50 (µM): 50% protection of HeLa cells against HRV15 infection at 1 MOI [2]: > 10 µM

B8: HscC (humanized 1A6 scFv HumC) (scFv)
scFv: B2 scFv with S200G
notes: as for B2
Kd [1]: 58 nM | fold higher binding affinity than the parental mouse scFv [3]: > 10 fold
